For 1 substance, koff and kon results are on record in publication PMC5278397.

This assay has as its target gp130 extracellular domain (UniProt P40189). The assay can be described thus: SPR; gp130 extracellular domain amine-coupled on CM5; fixed excess of IL-6 and differing concentrations of gp80 (0–250 nM) with or without VHH6; 100 μl/min; 1:1 binding model; 25 °C, HBS-P+; BIAcore T200.

Chain of gp130 extracellular domain (P40189 23-619): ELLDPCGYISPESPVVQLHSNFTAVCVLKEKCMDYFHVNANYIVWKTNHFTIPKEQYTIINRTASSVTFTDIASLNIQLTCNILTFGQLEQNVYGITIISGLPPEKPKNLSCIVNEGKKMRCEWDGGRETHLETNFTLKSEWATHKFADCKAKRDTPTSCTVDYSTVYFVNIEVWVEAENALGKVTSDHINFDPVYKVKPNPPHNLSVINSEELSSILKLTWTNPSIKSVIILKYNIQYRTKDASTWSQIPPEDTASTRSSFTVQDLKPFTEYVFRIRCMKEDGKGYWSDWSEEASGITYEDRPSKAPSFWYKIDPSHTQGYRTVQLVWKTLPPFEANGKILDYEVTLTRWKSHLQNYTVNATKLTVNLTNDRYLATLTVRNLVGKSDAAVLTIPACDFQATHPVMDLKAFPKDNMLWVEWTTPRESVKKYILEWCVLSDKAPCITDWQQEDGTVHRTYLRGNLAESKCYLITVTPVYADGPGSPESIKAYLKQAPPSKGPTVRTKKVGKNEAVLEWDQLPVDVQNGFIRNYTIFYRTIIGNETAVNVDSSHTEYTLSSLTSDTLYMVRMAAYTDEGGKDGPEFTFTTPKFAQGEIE
Chain of IL-6–gp80 complex (IL-6 with gp80V4) (P05231 49-212): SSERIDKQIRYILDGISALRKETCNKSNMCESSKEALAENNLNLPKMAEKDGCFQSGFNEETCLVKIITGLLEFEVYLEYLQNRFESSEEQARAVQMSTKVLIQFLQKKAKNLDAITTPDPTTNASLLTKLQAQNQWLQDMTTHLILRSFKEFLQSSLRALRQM
Chain of IL-6–gp80 complex (IL-6 with gp80V4) (P08887 111-322): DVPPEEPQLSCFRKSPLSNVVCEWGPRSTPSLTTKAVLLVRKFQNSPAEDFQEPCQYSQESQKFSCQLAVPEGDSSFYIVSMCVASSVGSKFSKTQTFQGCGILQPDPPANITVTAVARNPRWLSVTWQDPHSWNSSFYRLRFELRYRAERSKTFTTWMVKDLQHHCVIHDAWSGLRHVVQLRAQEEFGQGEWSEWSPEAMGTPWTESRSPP

In turn, “IL-6–gp80 complex (IL-6 with gp80V4) (from UniProt P05231 49-212; P08887 111-322)” showed a koff of 0.037 s⁻¹ and a kon of 360000 M⁻¹ s⁻¹.
